The supplement of paper PMC9170038

System: MS2 coat protein
Assay: apparent KD of MS2 coat protein; designed switch direction (-1 OFF switch, 1 ON switch): -1; higher = weaker reporter binding
Method in brief: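 RNA switches sharing common flanks were transcribed by stalled E. coli RNA polymerase on Illumina chips. A doubling series of SNAP-549-labelled MS2 coat protein, from 0.7 or 1.5 nM to 3 µM, was applied in Tris-HCl pH 7.5 buffer with KCl, MgCl2, BSA, DTT, tRNA and Tween-20. Each step lasted 0.8–1.5 h at the bottom of the series and 10–20 min at the top. Normalised cluster fluorescence was curve-fitted, giving apparent KD as the per-design median over clusters.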

[1] = Eterna round: R95, input ligand: microRNA oligo, concentration not stated
[2] = input ligand: microRNA oligo, concentration not stated
[3] = Eterna round: R95, input ligand: FMN 200 uM
[4] = Eterna round: R95, input ligand: none

Row | Sequence | apparent KD of MS2 coat protein [1] [nM] | apparent KD of MS2 coat protein (input ligand: FMN 200 uM) [nM] | apparent KD of MS2 coat protein [2] [nM] | apparent KD of MS2 coat protein (input ligand: none) [nM] | apparent KD of MS2 coat protein [3] [nM] | apparent KD of MS2 coat protein [4] [nM]
1 | GUUAGACAUGAGGAUCACCCAUGUGAGGAUAUGAUGUGAAUAAAUAAUUAAUUAAGUAUCAGAAGGCACAUAUG [Mat - Mod of Hyphema D32] (puzzle: Exclusion 1) | 119 | – | – | – | – | –
2 | CUCGUGCAGCAAAGCUGUACGAGUACAUGAGGAUCACCCAUGUAGGAUAUGGUACGCUUUGCGUGCUAGAAGGAUAUGUGUAGG [Mat - Exclusion NG 3 - Mod of JL - D86] (Eterna round: R96, puzzle: Exclusion NG 3) | – | 37.5 | 24.1 | 36.1 | – | –
3 | AGAUCCUGAGUCAGGAUAUAGAGGCGAAAGCCUGGCUAGAAGGGACAUGAGGAUCACCCAUGUGGGUUCGUGCC [Geariat] (puzzle: Brourd's mod of Exclusion 4) | 19.6 | – | – | – | – | –
4 | ACGUAUAGAGGAUAUAGUGAAUAUUACAUGAGGAUCACCCAUGUUCUUCAAAGCAUAUUCCUAGAAGGCUGAUGAA [EX-5 Malc#13] (puzzle: Exclusion 5) | 47.5 | – | – | – | – | –
5 | CUGGUGUGAGGAUAUCAGGGCGCGCCCAAGGGCACGCCAAAUGAGAAGGCACAUGAGGAUCACCCAUGUGGGAC [Erzala] (puzzle: Exclusion 4) | 31.4 | – | – | – | 45.6 | 35.3
6 | GGUCCACAUGAGGAUCACCCAUGUAAUAACAUGCAGCGCAGGAAGGAUAUGCCCGAACAAAGCCAGCAGAAGGUCCAUUAACAU [Eternabot solution 7] (Eterna round: R96, puzzle: Exclusion NG 3) | – | 166 | 84.5 | 128 | – | –
7 | CCUCUACAUGAGGAUCACCCAUGUGAGGAUAUCUCGGAGCAGCCAAUUAAAGCGCUCCAGAGAAGGCACGUGUA [Inesraar] (puzzle: Exclusion 1) | 19.4 | – | – | – | – | –
8 | AGUAAGCUAGGAUAUGCUUUGGGAAAGCCUUCCUUCGAUAAACUUGAGGAUCACCCAAGUAGAAGGAGCUAAAU [jl-ex2.4.48 ViennaUCT mod] (Eterna round: R97, puzzle: Exclusion 2) | – | 16.7 | – | 16 | – | –
9 | AAGAUUCUCAUGAGCUGGAACAUGAGGAUCACCCAUGUGUGUUGCUUUUUGCUCAAGGAAUCCAUUUCGAUCUUAUA [Eternabot (L1) Solution 43] (Eterna round: R97, puzzle: Sensor, turn-off variant 1) | – | 62.9 | – | 71.8 | – | –
10 | UAUUAGUGAGGAUAUGAGUCGUAGAACAAUAGUACUACGUCUCAGAAGGUACAUGAGGAUCACCCAUGUUUCUC [Fiskers Ex 4 Super Stable 44 mod 33] (puzzle: Exclusion 4) | 18.8 | – | – | – | – | –
11 | AGAUCACAUGAGGAUCACCCAUGUCAGGAUAUCAUCAUUGAAGCUUCGGCUUCAAUGAUGAGAAGGGACAUAAU [E1/2-B1] (Eterna round: R97, puzzle: Exclusion 1) | – | 297 | – | 598 | – | –
12 | GUAAAACAUGUAGGAUAUGCGUGGCGAAGCUAUGCAGAAGGACAUGAGGAUCACCCAUGUUAAAGCGUCUGCGUACAGAUGCAA [Mat - Exclusion NG 1 - Mod of JL - D94] (Eterna round: R96, puzzle: Exclusion NG 1) | – | 279 | 19.8 | 29.2 | – | –
13 | AUAUAGCGAGGAUAUACAUGAGGAUCACCCAUGUGGUAGUAGAUACAGUAGAGAUAGAGUAGAAGGCGCUAUGA [EX3 #7] (Eterna round: R97, puzzle: Exclusion 3) | – | 416 | – | 79.2 | – | –
14 | UUAUUAUAUGUAGGAUAUGCAUAUUAUUAUUAUGCAGAAGGACAUGAGGAUCACCCAUGUAUAUUAUUAUUAUAUAUUAUAUGU [Title] (Eterna round: R96, puzzle: Exclusion NG 1) | – | – | 33.8 | – | – | –
15 | GGUUGGCGAGGAUAUACAUGAGGAUCACCCAUGUGAGAGAAAAAAGUGAGCAAGAAAAGUAGAAGGCGCUGACG [salish99_ex3_r3_030] (puzzle: Exclusion 3) | 75.7 | – | – | – | 627 | 27.5
16 | ACAAGCUUAGGUUUUCAUAACAUGAGGAUCACCCAUGUUCGUCUUAUAAAAAUAAAAAUAAAAAACAAAAAAUAAAA [Sensor V2: 66] (Eterna round: R96, puzzle: Sensor v2, turn-off variant) | – | 39.1 | 117 | 41.2 | – | –

Row | Sequence | apparent KD of MS2 coat protein [1] [nM] | apparent KD of MS2 coat protein (input ligand: FMN 200 uM) [nM] | apparent KD of MS2 coat protein [2] [nM] | apparent KD of MS2 coat protein (input ligand: none) [nM] | apparent KD of MS2 coat protein [3] [nM] | apparent KD of MS2 coat protein [4] [nM]
17 | GCAGCAUAGAUGAAAAUCUGAUACAUGAGGAUCACCCAUGUUCAGGAUAUGGUCUGGAUUACAGGCCAGAAGGGAACAAGCUGC [Eli exng3 - 011] (Eterna round: R96, puzzle: Exclusion NG 3) | – | 14 | 10.3 | 12 | – | –
18 | GAUCAGAUAGGAUAUACAGGCCCGUCUUUAUAUUGAUCCCGACAUGAGGAUCACCCAUGUAGAAGGAUCAGAUC [Mod 28 - Jieux - Exclusion 2] (Eterna round: R97, puzzle: Exclusion 2) | – | 23.3 | – | 17.5 | – | –
19 | GCAGGUCGAGGAUAUACAUGAGGAUCACCCAUGUUGAUCAAGCGACUUCGGUCGCAAUGUAGAAGGCGACCUGC [E3/7-A6] (Eterna round: R97, puzzle: Exclusion 3) | – | 151 | – | 1210 | – | –
20 | GGUACUAUCACCUGAGUGGUAGUGCAAUAAGCUUGUGAUACAUGAGGAUCACCCAUGUCCUCAUUUGCUCGUCUUAU [JL-sv3-2.26 JL mod] (puzzle: Sensor v3, turn-off variant 2) | 516 | – | – | – | 533 | 839
21 | GAUUAUGCGAGCUUUAGGGACAUGAGGAUCACCCAUGUUCGUCUUAUUGGUCUGGGUACACUGACAUACCUAAAUCU [JMF 72] (puzzle: Sensor v3, turn-off variant 1) | 42.2 | – | – | – | 33.9 | 32.4
22 | GUUGUGUGAGGAUAUGCCUGGCCGUGAGGCCGGAUUGGGUGGCAGAAGGUACAUGAGGAUCACCCAUGUACGGG [salish99_ex4_4_007] (Eterna round: R97, puzzle: Exclusion 4) | – | 45.4 | – | 30.9 | – | –
23 | UAUAUAUAGUAAGGAUAUGUAUAUAUGUUAUAAACAGAAGGUACUGACAUGAGGAUCACCCAUGUUUUAGUGUGGGCAUGUAGA [JMF's solution 59] (Eterna round: R96, puzzle: Exclusion NG 1) | – | – | 53.8 | – | – | –
24 | AGAGGACAUGAGGAUCACCCAUGUAAGGAUAUGCGGAGAGUUUGGAGAGGUCGGGUAGGCAGAAGGUACAGGAG [JR_Exclu1_Sub050] (Eterna round: R96, puzzle: Exclusion 1) | – | 48 | 41 | 86.4 | – | –
25 | UGCAUGUAAGGAUAUGCAUCCGCCGACGUCCCGGCGGCACAGCAGAAGGUACAUGAGGAUCACCCAUGUGUCCC [Qusousar] (Eterna round: R96, puzzle: Exclusion 4) | – | 449 | 24 | 31 | – | –
26 | GGUCCACGAGGAUAUCGAUUUUAGUACAUGAGGAUCACCCAUGUUGUCCAGGUUUCGAUUCGAGAAGGCGUGGGCC [LRO-Ex5-03] (puzzle: Exclusion 5) | 20.3 | – | – | – | – | –
27 | AUAAUUAAUCGAGGAUAUCAGCACGUUUAGUGCUGAGAAGGCGACAUGAGGAUCACCCAUGUGAUCAAUUAAUAUUAAUAUUAU [ENG1/11-C2] (Eterna round: R96, puzzle: Exclusion NG 1) | – | 898 | 230 | 369 | – | –
28 | UGUAACCUAGGAUAUACAUGAGGAUCACCCAUGUAAUGUAGUAUAGUGUGUGUAAGGUGUAGAAGGAGGGAUGU [LRO-Excl05-22-Smart Aleck] (Eterna round: R97, puzzle: Exclusion 3) | – | 9.76 | – | 62.9 | – | –
29 | CCAACGUGAGGAUAUGCAAUGCUAGCGGGAUCUUCUCUCCAACAUGAGGAUCACCCAUGUAGAAGGCGCUGUUG [Eternabot (L1) Solution 38] (Eterna round: R97, puzzle: Exclusion 2) | – | 198 | – | 97.1 | – | –
30 | UGUGCGUCAGGAUAUUCUACUUAUUACAUGAGGAUCACCCAUGUGAAUGUACAAGGGUGUGAAGAAGGGACUUGUC [LRO-Excl5-05-mod A17d by Omei] (Eterna round: R97, puzzle: Exclusion 5) | – | 194 | – | 798 | – | –
31 | AGAAAACGAGGAUAUACGUGCAUAUUCUCGCCCAAUGGGCAACAUGAGGAUCACCCAUGUAGAAGGCGUAAAGA [Dienoror] (puzzle: Exclusion 2) | 34.6 | – | – | – | – | –
32 | CUCGUGCAGCUUUGCUGUACGAGUACAUGAGGAUCACCCAUGUAGGAUAUGGUACGCUUUGCGUGCCAGAAGGACGUGUGUUUG [JL EXNG3 1.40] (Eterna round: R96, puzzle: Exclusion NG 3) | – | 221 | 27.6 | 39.4 | – | –
